Assay results: publication PMC9482650, “Quantitative fragmentomics allow affinity mapping of interactomes” (Nature Communications, 2022)

How the values were obtained:
Test in all cases: holdup assay
Set-up in all cases: key: below the threshold = too weak to quantify, mostly under pKd 3.1 to 4
[1] = target: AHNAK1, Q09666
[2] = target: T1, APBA1_2, Q02410
T1 sequence (Q02410 742-832, limits assumed, looked up): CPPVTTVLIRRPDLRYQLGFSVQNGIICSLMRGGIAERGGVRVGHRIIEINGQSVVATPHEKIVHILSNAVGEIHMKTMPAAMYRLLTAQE

[3] = target: DLG1_1, Q12959
[4] = target: DLG2_2, Q15700
Chain of DLG2_2, Q15700 (Q15700 189-283): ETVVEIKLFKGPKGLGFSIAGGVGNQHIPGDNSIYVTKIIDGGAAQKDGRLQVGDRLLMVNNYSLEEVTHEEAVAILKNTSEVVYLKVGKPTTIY

[5] = target: T2, DLG3_1, Q92796
T2 sequence (Q92796 125-227, limits assumed, looked up): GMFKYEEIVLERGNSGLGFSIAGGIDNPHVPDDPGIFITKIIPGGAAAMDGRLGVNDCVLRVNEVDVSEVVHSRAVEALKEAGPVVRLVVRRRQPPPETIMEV

[6] = target: DLG4_2, P78352
Chain of DLG4_2, P78352 (P78352 155-259): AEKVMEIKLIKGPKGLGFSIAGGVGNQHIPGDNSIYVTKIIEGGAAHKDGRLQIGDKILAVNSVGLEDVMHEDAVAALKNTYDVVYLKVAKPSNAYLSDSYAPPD

[7] = target: GORASP1, Q9BQQ3
Chain of GORASP1, Q9BQQ3 (Q9BQQ3 1-208): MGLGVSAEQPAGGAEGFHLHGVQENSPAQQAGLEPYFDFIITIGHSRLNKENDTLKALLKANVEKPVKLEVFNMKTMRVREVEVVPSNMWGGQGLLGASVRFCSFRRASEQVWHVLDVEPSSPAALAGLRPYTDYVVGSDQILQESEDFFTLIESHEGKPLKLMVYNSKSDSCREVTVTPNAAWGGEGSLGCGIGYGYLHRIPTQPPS

[8] = target: T3, GRIP1_5, Q9Y3R0
T3 sequence (Q9Y3R0 568-668, limits assumed, looked up): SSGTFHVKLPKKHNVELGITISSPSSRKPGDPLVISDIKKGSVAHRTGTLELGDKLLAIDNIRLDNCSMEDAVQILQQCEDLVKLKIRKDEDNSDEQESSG

[9] = target: GRIP2_3, Q9C0E4
Chain of GRIP2_3, Q9C0E4 (Q9C0E4 238-339): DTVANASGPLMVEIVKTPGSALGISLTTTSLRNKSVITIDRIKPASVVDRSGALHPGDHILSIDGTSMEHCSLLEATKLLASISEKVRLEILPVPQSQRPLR

[10] = target: HTRA2, O43464
Chain of HTRA2, O43464 (O43464 355-458): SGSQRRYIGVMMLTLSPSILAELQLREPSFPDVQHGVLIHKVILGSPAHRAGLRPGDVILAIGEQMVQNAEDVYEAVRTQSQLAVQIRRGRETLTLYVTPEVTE

[11] = target: Inadl_1, Q8NI35
Chain of Inadl_1, Q8NI35 (Q8NI35 113-229): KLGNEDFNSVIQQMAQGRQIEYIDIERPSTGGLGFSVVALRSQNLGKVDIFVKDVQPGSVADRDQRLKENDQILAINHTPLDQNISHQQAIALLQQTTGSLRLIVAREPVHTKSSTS

[12] = target: Inadl_2, Q8NI35
Chain of Inadl_2, Q8NI35 (Q8NI35 238-335): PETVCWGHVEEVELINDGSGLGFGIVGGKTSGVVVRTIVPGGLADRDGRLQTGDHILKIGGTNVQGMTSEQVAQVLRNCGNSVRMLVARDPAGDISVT

[13] = target: Inadl_9, Q8NI35
Chain of Inadl_9, Q8NI35 (Q8NI35 1530-1615): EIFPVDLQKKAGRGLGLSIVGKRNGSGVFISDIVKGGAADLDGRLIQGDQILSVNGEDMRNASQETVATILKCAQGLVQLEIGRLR

[14] = target: T4, LIN7A, O14910
T4 sequence (O14910 103-200, limits assumed, looked up): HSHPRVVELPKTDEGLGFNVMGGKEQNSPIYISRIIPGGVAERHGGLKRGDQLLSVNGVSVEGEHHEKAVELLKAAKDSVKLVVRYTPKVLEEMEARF

[15] = target: T5, LIN7C, Q9NUP9
T5 sequence (Q9NUP9 88-185, limits assumed, looked up): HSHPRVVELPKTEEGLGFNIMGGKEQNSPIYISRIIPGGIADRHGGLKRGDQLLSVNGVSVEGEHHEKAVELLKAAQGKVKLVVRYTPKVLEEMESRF

[16] = target: MAGI1_1, Q96QZ7
Chain of MAGI1_1, Q96QZ7 (Q96QZ7 1-106): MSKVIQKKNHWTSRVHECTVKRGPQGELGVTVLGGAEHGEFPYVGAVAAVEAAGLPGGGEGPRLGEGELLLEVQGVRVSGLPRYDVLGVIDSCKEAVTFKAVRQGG

[17] = target: MAGI1_2, Q96QZ7
Chain of MAGI1_2, Q96QZ7 (Q96QZ7 456-580): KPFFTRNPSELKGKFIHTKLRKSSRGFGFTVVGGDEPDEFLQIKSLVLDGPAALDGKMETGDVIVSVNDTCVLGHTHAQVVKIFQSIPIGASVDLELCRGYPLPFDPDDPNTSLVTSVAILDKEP

[18] = target: MAGI2_5, Q86UL8
Chain of MAGI2_5, Q86UL8 (Q86UL8 915-1017): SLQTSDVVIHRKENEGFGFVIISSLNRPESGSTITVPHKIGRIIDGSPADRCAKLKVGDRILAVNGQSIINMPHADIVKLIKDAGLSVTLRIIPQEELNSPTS

[19] = target: MAST1, Q9Y2H9
Chain of MAST1, Q9Y2H9 (Q9Y2H9 962-1065): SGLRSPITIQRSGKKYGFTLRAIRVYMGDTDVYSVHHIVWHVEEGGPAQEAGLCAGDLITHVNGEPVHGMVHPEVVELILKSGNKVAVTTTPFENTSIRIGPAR

[20] = target: NHERF2_2, Q15599
Chain of NHERF2_2, Q15599 (Q15599 142-238): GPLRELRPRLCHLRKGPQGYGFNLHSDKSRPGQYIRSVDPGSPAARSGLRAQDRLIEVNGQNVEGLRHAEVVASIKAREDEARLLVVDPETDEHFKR

[21] = target: T6, PARD3B_1, Q8TEW8
T6 sequence (Q8TEW8 196-299, limits assumed, looked up): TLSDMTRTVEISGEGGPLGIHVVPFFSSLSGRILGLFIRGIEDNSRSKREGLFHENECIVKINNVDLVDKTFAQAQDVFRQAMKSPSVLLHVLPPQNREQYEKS

[22] = target: PARD3_3, Q8TEW0
Chain of PARD3_3, Q8TEW0 (Q8TEW0 582-685): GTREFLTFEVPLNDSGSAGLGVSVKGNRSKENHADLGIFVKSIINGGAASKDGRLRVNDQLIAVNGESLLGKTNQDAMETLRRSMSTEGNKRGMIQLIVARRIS

[23] = target: PTPN3, P26045
Chain of PTPN3, P26045 (P26045 505-587): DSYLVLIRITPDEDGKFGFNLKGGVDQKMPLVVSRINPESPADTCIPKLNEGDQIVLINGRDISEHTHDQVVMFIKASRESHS

[24] = target: T7, RADIL, Q96JH8
T7 sequence (Q96JH8 971-1071, limits assumed, looked up): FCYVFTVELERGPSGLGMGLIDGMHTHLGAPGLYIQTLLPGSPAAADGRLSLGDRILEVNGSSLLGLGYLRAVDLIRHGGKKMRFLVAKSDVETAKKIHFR

[25] = target: T8, SHANK1, Q9Y566
T8 sequence (Q9Y566 658-767, limits assumed, looked up): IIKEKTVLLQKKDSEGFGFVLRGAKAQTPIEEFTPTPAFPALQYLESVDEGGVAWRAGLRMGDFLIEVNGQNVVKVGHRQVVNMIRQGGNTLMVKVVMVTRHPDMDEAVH

[26] = target: T9, SYNJ2BP, P57105
T9 sequence (P57105 8-110, limits assumed, looked up): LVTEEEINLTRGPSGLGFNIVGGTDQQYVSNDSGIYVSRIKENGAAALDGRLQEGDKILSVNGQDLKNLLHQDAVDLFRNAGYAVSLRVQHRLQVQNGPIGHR

[27] = target: T10, TJP3_3, O95049
T10 sequence (O95049 375-456, limits assumed, looked up): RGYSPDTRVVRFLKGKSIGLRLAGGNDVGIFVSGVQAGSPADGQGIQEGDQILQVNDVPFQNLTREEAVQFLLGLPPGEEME

[28] = plain residues with an end cap or a label only (N-terminal biotin on a linker: ado-ado)
[29] = plain residues with an end cap or a label only (N-terminal biotin on a linker: ahx)
[30] = plain residues with an end cap or a label only (N-terminal biotin on a linker: (peg)3)

Chain of AHNAK1, Q09666 (Q09666 4-100): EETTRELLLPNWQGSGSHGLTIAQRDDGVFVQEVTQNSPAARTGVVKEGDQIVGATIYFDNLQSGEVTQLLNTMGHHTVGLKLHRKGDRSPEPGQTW

DPAESMESLV [PTPRG, P23470]
pKd [1, 28]: below the threshold
pKd [2, 28]: below the threshold
pKd [3, 28]: 4.45
pKd [4, 28]: 4.68
pKd [5, 28]: 4.23
pKd [6, 28]: 5.01
pKd [7, 28]: below the threshold
pKd [8, 28]: below the threshold
pKd [9, 28]: below the threshold
pKd [10, 28]: below the threshold
pKd [11, 28]: below the threshold
pKd [12, 28]: 3.5
pKd [13, 28]: 3.73
pKd [14, 28]: 3.7
pKd [15, 28]: 3.94
pKd [16, 28]: below the threshold
pKd [17, 28]: 3.55
pKd [18, 28]: 5.32
pKd [19, 28]: 4.31
pKd [20, 28]: below the threshold
pKd [21, 28]: below the threshold
pKd [22, 28]: 3.93
pKd [23, 28]: 4.61
pKd [24, 28]: 4.23
pKd [25, 28]: below the threshold
pKd [26, 28]: 4.74
pKd [27, 28]: below the threshold

QPRTWLQSPV [RTKN, Q9BST9]
pKd [1, 29]: below the threshold
pKd [2, 29]: below the threshold
pKd [3, 29]: 3.74
pKd [4, 29]: 4.71
pKd [5, 29]: below the threshold
pKd [6, 29]: 4.27
pKd [7, 29]: below the threshold
pKd [8, 29]: below the threshold
pKd [9, 29]: below the threshold
pKd [10, 29]: below the threshold
pKd [11, 29]: below the threshold
pKd [12, 29]: below the threshold
pKd [13, 29]: below the threshold
pKd [14, 29]: below the threshold
pKd [15, 29]: below the threshold
pKd [16, 29]: below the threshold
pKd [17, 29]: 4.83
pKd [18, 29]: 4.33
pKd [19, 29]: 3.85
pKd [20, 29]: below the threshold
pKd [21, 29]: below the threshold
pKd [22, 29]: below the threshold
pKd [23, 29]: 3.78
pKd [24, 29]: below the threshold
pKd [25, 29]: 3.74
pKd [26, 29]: 5.2
pKd [27, 29]: below the threshold

DFLSTFHIRI [CIB2, O75838]
pKd [1, 28]: below the threshold
pKd [2, 28]: below the threshold
pKd [3, 28]: below the threshold
pKd [4, 28]: below the threshold
pKd [5, 28]: below the threshold
pKd [6, 28]: below the threshold
pKd [7, 28]: 4.59
pKd [8, 28]: below the threshold
pKd [9, 28]: below the threshold
pKd [10, 28]: 3.5
pKd [11, 28]: 3.91
pKd [12, 28]: below the threshold
pKd [13, 28]: 3.66
pKd [14, 28]: below the threshold
pKd [15, 28]: below the threshold
pKd [16, 28]: below the threshold
pKd [17, 28]: below the threshold
pKd [18, 28]: below the threshold
pKd [19, 28]: below the threshold
pKd [20, 28]: below the threshold
pKd [21, 28]: 4.68
pKd [22, 28]: 4.28
pKd [23, 28]: below the threshold
pKd [24, 28]: 4.19
pKd [25, 28]: below the threshold
pKd [26, 28]: below the threshold
pKd [27, 28]: below the threshold

EIPAQSPTCV [FZD10, Q9ULW2]
pKd [1, 28]: 3.57
pKd [2, 28]: 4.77
pKd [3, 28]: 3.85
pKd [4, 28]: 3.89
pKd [5, 28]: 3.72
pKd [6, 28]: 4.11
pKd [7, 28]: 3.85
pKd [8, 28]: below the threshold
pKd [9, 28]: 3.61
pKd [10, 28]: 3.76
pKd [11, 28]: 3.58
pKd [12, 28]: 3.58
pKd [13, 28]: 4.6
pKd [14, 28]: 3.48
pKd [15, 28]: below the threshold
pKd [16, 28]: 3.79
pKd [17, 28]: 3.88
pKd [18, 28]: 3.67
pKd [19, 28]: below the threshold
pKd [20, 28]: 3.81
pKd [21, 28]: below the threshold
pKd [22, 28]: 3.65
pKd [23, 28]: 3.77
pKd [24, 28]: 4.47
pKd [25, 28]: 3.62
pKd [26, 28]: 4.36
pKd [27, 28]: 3.78

QDEKVKESYV [ABCA1, O95477]
pKd [1, 29]: below the threshold
pKd [2, 29]: 4.29
pKd [3, 29]: 4.6
pKd [4, 29]: 4.17
pKd [5, 29]: 4.29
pKd [6, 29]: 5.25
pKd [7, 29]: 3.66
pKd [8, 29]: below the threshold
pKd [9, 29]: below the threshold
pKd [10, 29]: below the threshold
pKd [11, 29]: below the threshold
pKd [12, 29]: 3.93
pKd [13, 29]: 4.29
pKd [14, 29]: 3.89
pKd [15, 29]: 4.59
pKd [16, 29]: below the threshold
pKd [17, 29]: 4.03
pKd [18, 29]: 4.58
pKd [19, 29]: 4.16
pKd [20, 29]: 3.64
pKd [21, 29]: below the threshold
pKd [22, 29]: below the threshold
pKd [23, 29]: 5.04
pKd [24, 29]: 4.89
pKd [25, 29]: below the threshold
pKd [26, 29]: 5.22
pKd [27, 29]: below the threshold

RYEDTTLVEDTVL [WNV-NS5, Q9Q6P4]
pKd [1, 30]: below the threshold
pKd [2, 30]: below the threshold
pKd [3, 30]: 3.58
pKd [4, 30]: below the threshold
pKd [5, 30]: below the threshold
pKd [6, 30]: 3.7
pKd [7, 30]: 3.77
pKd [8, 30]: below the threshold
pKd [9, 30]: below the threshold
pKd [10, 30]: below the threshold
pKd [11, 30]: below the threshold
pKd [12, 30]: below the threshold
pKd [13, 30]: below the threshold
pKd [14, 30]: 3.59
pKd [15, 30]: below the threshold
pKd [16, 30]: 3.62
pKd [17, 30]: below the threshold
pKd [18, 30]: below the threshold
pKd [19, 30]: 4.3
pKd [20, 30]: 4.89
pKd [21, 30]: 4.66
pKd [22, 30]: 4.53
pKd [23, 30]: 4.37
pKd [24, 30]: below the threshold
pKd [25, 30]: 4.77
pKd [26, 30]: 3.66
pKd [27, 30]: below the threshold
